From patent US20230140293A1 come the findings set out here.

Common to all, as to assay: cell-based or functional assay
Assay [1] concerns the target HIV-1 426c.DM (N460D/N463D) Env on Env-pseudotyped virus produced in 293T cells (HIV-1).
In assay [2] the target is HIV-1 426c.TM (N276D/N460D/N463D) Env on Env-pseudotyped virus produced in 293s/GnTI-/- cells (Man5-enrichment) (HIV-1).
For assay [3], the target named is HIV-1 clade C strain 426c Env on Env-pseudotyped virus produced in 293s/GnTI-/- cells (Man5-enrichment) (HIV-1).
Assay [4] deals with HIV-1 426c.SM (N276D) Env on Env-pseudotyped virus produced in 293s/GnTI-/- cells (Man5-enrichment) (HIV-1).
Assay [5] deals with HIV-1 426c.TM (N276D/N460D/N463D) Env on Env-pseudotyped virus produced in 293T cells (HIV-1).
Assay [6] deals with HIV-1 clade C strain 426c Env on Env-pseudotyped virus produced in 293T cells (HIV-1).
The target of assay [7] is HIV-1 426c.SM (N276D) Env on Env-pseudotyped virus produced in 293T cells (HIV-1).
In assay [8] the target is HIV-1 426c.DM (N460D/N463D) Env on Env-pseudotyped virus produced in 293s/GnTI-/- cells (Man5-enrichment) (HIV-1).
The target of assay [9] is HIV-1 Env 426c.TM4 (S278R.G471S.N460D.N463D), Env-pseudotyped virus produced in 293T cells (HIV-1 clade C strain 426c).
Assay [10] deals with HIV-1 Env 426c, Env-pseudotyped virus produced in 293S GnTI- cells (Man5-enriched) (HIV-1 clade C strain 426c).
Assay [11] addresses HIV-1 Env 426c.TM (N276D.N460D.N463D), Env-pseudotyped virus produced in 293S GnTI- cells (Man5-enriched) (HIV-1 clade C strain 426c).
The target of assay [12] is HIV-1 Env 426c.TM4 (S278R.G471S.N460D.N463D), Env-pseudotyped virus produced in 293S GnTI- cells (Man5-enriched) (HIV-1 clade C strain 426c).
Assay [13] deals with HIV-1 Env 426c.DM (N460D.N463D), Env-pseudotyped virus produced in 293S GnTI- cells (Man5-enriched) (HIV-1 clade C strain 426c).
The target of assay [14] is HIV-1 Env 426c.SM (N276D), Env-pseudotyped virus produced in 293S GnTI- cells (Man5-enriched) (HIV-1 clade C strain 426c).
Assay [15] concerns the target CH0505TF Env, Env-pseudotyped virus produced in 293S GnTI- cells (Man5-enriched) (HIV-1).
For assay [16], the target named is HIV-1 Env 426c.TM (N276D.N460D.N463D), Env-pseudotyped virus produced in 293T cells (HIV-1 clade C strain 426c).
The target of assay [17] is CH0505TF.gly3.197 Env, Env-pseudotyped virus produced in 293S GnTI- cells (Man5-enriched) (HIV-1).
The target of assay [18] is CH0505TF.gly3.461 Env, Env-pseudotyped virus produced in 293S GnTI- cells (Man5-enriched) (HIV-1).
In assay [19] the target is HIV-1 Env 426c, Env-pseudotyped virus produced in 293T cells (HIV-1 clade C strain 426c).
Assay [20] concerns the target CH0505TF.G458Y Env, Env-pseudotyped virus produced in 293S GnTI- cells (Man5-enriched) (HIV-1).
Assay [21] concerns the target CH0505TF.gly3.276 Env, Env-pseudotyped virus produced in 293T cells (HIV-1).
For assay [22], the target named is CH0505TF Env, Env-pseudotyped virus produced in 293T cells (HIV-1).
The target of assay [23] is CH0505TF.gly3.197 Env, Env-pseudotyped virus produced in 293T cells (HIV-1).
In assay [24] the target is CH0505TF.gly4 Env, Env-pseudotyped virus produced in 293S GnTI- cells (Man5-enriched) (HIV-1).
The target in assay [25] is HIV-1 Env 426c.DM (N460D.N463D), Env-pseudotyped virus produced in 293T cells (HIV-1 clade C strain 426c).
Assay [26] has as its target CH0505TF.gly3.276 Env, Env-pseudotyped virus produced in 293S GnTI- cells (Man5-enriched) (HIV-1).
Assay [27] concerns the target CH0505TF.G458Y Env, Env-pseudotyped virus produced in 293T cells (HIV-1).
The target of assay [28] is CH0505TF.gly4 Env, Env-pseudotyped virus produced in 293T cells (HIV-1).
For assay [29], the target named is HIV-1 Env 426c.SM (N276D), Env-pseudotyped virus produced in 293T cells (HIV-1 clade C strain 426c).
The target of assay [30] is CH0505TF.gly3.461 Env, Env-pseudotyped virus produced in 293T cells (HIV-1).
Assay [31] addresses CH0505.w4.3 Env, Env-pseudotyped virus produced in 293T cells (HIV-1).

Where only a bound is given, the exact number is not on record here.

Consider VRC34.1 (antibody), for which the ID50/IC50 in TZM-bl came out at 0.09 µg/mL in assay [1]; 0.07 µg/mL in assay [2]; 0.05 µg/mL in assay [3]; 0.07 µg/mL in [4]; 0.08 µg/mL in assay [5]; 0.08 µg/mL in [6]. The ID50/IC50 in TZM-bl in assay [7] is 0.06 µg/mL; in assay [8], 0.04 µg/mL.

As to VRC04 (antibody), the IC50 (µg/ml) in TZM-bl is 0.013 µg/mL in [9]; 0.18 µg/mL in [10]; 0.01 µg/mL in assay [11]; below 0.002 µg/mL in assay [12]; 0.05 µg/mL in assay [13]; 0.02 µg/mL in [14].

Consider VRC07 (antibody), for which the IC50 (µg/ml) in TZM-bl in assay [9] was below 0.002 µg/mL; in assay [10], 0.07 µg/mL; in assay [11], 0.009 µg/mL; in assay [12], below 0.002 µg/mL; in [13], 0.05 µg/mL; in assay [14], 0.02 µg/mL.

Take VRC23 (antibody): the IC50 (µg/ml) in TZM-bl in assay [9] is 0.082 µg/mL; in [10] it was 0.19 µg/mL; in assay [11], 3.1 µg/mL; in assay [12], below 0.002 µg/mL; in assay [13], 0.06 µg/mL; in assay [14], 0.1 µg/mL.

PGDM1400 (antibody): the ID50/IC50 in TZM-bl in assay [1] is above 25 µg/mL; in assay [2], above 5 µg/mL; in assay [3], above 5 µg/mL; in [4], above 5 µg/mL; in assay [5], above 25 µg/mL; in assay [6], above 25 µg/mL. Further, the values for the ID50/IC50 in TZM-bl in assay [7] and in assay [8] were above 25 µg/mL and above 5 µg/mL, respectively. Also, the IC50 (µg/ml) in TZM-bl is 0.007 µg/mL in assay [15]; above 25 µg/mL in assay [16]; 0.003 µg/mL in assay [17]; 0.008 µg/mL in assay [18]; above 25 µg/mL in assay [19]; above 5 µg/mL in assay [9]. Also, the IC50 (µg/ml) in TZM-bl in assay [20] was 0.002 µg/mL; in assay [21], 0.02 µg/mL; in assay [22], 0.006 µg/mL; in assay [23] it was 0.01 µg/mL; in assay [10], above 5 µg/mL; in [11], above 5 µg/mL. The IC50 (µg/ml) in TZM-bl in assay [24] was 0.007 µg/mL; in assay [25], above 25 µg/mL; in assay [12] it was above 5 µg/mL; in assay [13], above 5 µg/mL; in assay [26] it was 0.004 µg/mL; in assay [14] it was above 5 µg/mL. Also, the IC50 (µg/ml) in TZM-bl in [27] was 0.006 µg/mL; in assay [28] it was 0.016 µg/mL; in assay [29], above 25 µg/mL; in assay [30], 0.04 µg/mL.

In the case of 10E8 (antibody), the IC50 (µg/ml) in TZM-bl in assay [15] is 2.2 µg/mL; in assay [16] it was 1.52 µg/mL; in assay [17], 4 µg/mL; in assay [18] it was 2.5 µg/mL; in assay [19] it was 0.8 µg/mL; in assay [9], 0.53 µg/mL. Moreover, the IC50 (µg/ml) in TZM-bl in assay [20] amounted to 2.1 µg/mL; in assay [21] it was 3.3 µg/mL; in assay [22], 4.4 µg/mL; in assay [23], 3.4 µg/mL; in [10], 0.35 µg/mL; in [31] it was 1.1 µg/mL. For the same substance, the IC50 (µg/ml) in TZM-bl came out at 0.51 µg/mL in assay [11]; 2.2 µg/mL in assay [24]; 1.11 µg/mL in assay [25]; 0.19 µg/mL in [12]; 0.45 µg/mL in [13]; 2.3 µg/mL in assay [26]. The IC50 (µg/ml) in TZM-bl in assay [14] amounted to 0.28 µg/mL; in [27], 1.1 µg/mL; in [28] it was 2.7 µg/mL; in assay [29], 1.26 µg/mL; in [30] it was 3.3 µg/mL.

As for VRC34.01 (antibody), the IC50 (µg/ml) in TZM-bl in assay [15] came to 0.1 µg/mL; in assay [16], 0.08 µg/mL; in assay [17] it was 0.17 µg/mL; in [18], 0.17 µg/mL; in [19] it was 0.08 µg/mL; in [9] it was 0.13 µg/mL. Besides, the IC50 (µg/ml) in TZM-bl in assay [20] was 0.03 µg/mL; in [21] it was 0.62 µg/mL; in assay [22] it was 0.55 µg/mL; in assay [23], 2.1 µg/mL; in assay [10], 0.05 µg/mL; in [31], above 25 µg/mL. In addition, the IC50 (µg/ml) in TZM-bl is 0.07 µg/mL in assay [11]; 0.14 µg/mL in assay [24]; 0.09 µg/mL in assay [25]; 0.07 µg/mL in assay [12]; 0.04 µg/mL in assay [13]; 0.14 µg/mL in [26]. In addition, the IC50 (µg/ml) in TZM-bl turned out to be 0.07 µg/mL in assay [14]; 0.21 µg/mL in assay [27]; 0.94 µg/mL in [28]; 0.06 µg/mL in assay [29]; 0.84 µg/mL in assay [30].

Turning to VRC03 (antibody), the IC50 (µg/ml) in TZM-bl in [9] is 0.003 µg/mL; in [10], 0.014 µg/mL; in assay [11], 0.003 µg/mL; in assay [12] it was below 0.002 µg/mL; in assay [13], 0.005 µg/mL; in assay [14] it was 0.003 µg/mL.

In the case of VRC20 (VRC-PG20) (antibody), the IC50 (µg/ml) in TZM-bl in assay [9] was below 0.002 µg/mL; in assay [10] it was 0.015 µg/mL; in assay [11], 0.005 µg/mL; in assay [12] it was 0.008 µg/mL; in [13] it was 0.007 µg/mL; in assay [14], 0.004 µg/mL.

In the case of VRC018 (antibody), the IC50 (µg/ml) in TZM-bl was 0.005 µg/mL in assay [9]; 0.06 µg/mL in assay [10]; 0.006 µg/mL in assay [11]; below 0.002 µg/mL in assay [12]; 0.02 µg/mL in assay [13]; 0.01 µg/mL in assay [14].
